Source: patent publication US20130244255A1, “ANTIBODIES DIRECTED TO GPNMB AND USES THEREOF” (priority 2006, published 2013)

Assays:
TK10 = experiment: Anti-GPNMB antibody mediated indirect cell killing (saporin secondary conjugate, colony count); assay type: cell-based; settings: antibody at 50 ng/mL with goat anti-human IgG-saporin 100 ng/well
Procedure: UACC-62, a GPNMB antigen expressing cell line, and TK10, a non-expressing cell line were plated onto flat bottom 96-well tissue culture plates (Becton Dickinson, Franklin Lakes, N.J., USA) at a density of 3000 cells per well. Once the cells reached ˜25% confluency, 100 ng/well of secondary antibody-toxin conjugate (goat anti-human IgG-saporin; Advanced Targeting Systems, San Diego, USA, HUM-ZAP; cat #IT-22) was added. […] An anti-EGFR monoclonal antibody (MS-269-PABX, NeoMarkers, Fremont, Calif., USA) was used as a positive primary antibody control. Chemotherapy reagent 5-FU at 600 uM was used as a positive reagent control. On day 5, the cells were trypsinized, transferred to 6-well tissue culture plates and incubated at 37° C. Plates were examined daily and between 8-10 days, all plates were Giemsa stained and colonies were counted.

[1] = tested on: CG56972-expressing cancer cells; experiment: Growth inhibition by CR011 with saporin-conjugated secondary antibody; assay type: cell-based, human; settings: data not shown
GPNMB = target: T1, GPNMB (Homo sapiens, UniProt Q14956); experiment: Binning of antibodies (Luminex competitive binding)
T1 construct: we cloned the human CG56972 extracellular domain (ECD; aa 23-480); made in house; host or cells: HEK 293 cells
T1 sequence (Q14956 23-492): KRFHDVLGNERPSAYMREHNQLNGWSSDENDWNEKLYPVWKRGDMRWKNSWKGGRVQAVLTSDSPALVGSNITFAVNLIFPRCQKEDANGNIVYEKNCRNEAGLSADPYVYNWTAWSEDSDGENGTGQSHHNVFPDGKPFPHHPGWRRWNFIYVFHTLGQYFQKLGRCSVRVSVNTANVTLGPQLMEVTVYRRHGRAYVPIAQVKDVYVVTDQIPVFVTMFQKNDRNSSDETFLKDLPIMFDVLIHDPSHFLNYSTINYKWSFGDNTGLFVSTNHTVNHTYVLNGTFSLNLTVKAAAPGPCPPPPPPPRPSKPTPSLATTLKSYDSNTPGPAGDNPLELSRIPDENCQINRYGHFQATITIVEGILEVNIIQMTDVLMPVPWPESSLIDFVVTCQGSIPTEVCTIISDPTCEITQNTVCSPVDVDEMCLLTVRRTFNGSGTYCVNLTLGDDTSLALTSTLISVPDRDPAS
Procedure: Certain antibodies, described herein were binned in accordance with the protocol described in U.S. Patent Application Publication No. 20030157730. M×hIgG conjugated beads are prepared for coupling to primary antibody. The volume of supernatant needed is calculated using the following formula: (n+10)×50 μL (where n=total number of samples on plate). Where the concentration is known, 0.5 μg/mL is used. Bead stock is gently vortexed, then diluted in supernatant to a concentration of 2500 of each bead per well or 0.5×10^5/mL and incubated on a shaker in the dark at RT overnight, or 2 hours if at a known concentration of 0.5 μg/mL. Following aspiration, 50 μL of each bead is added to each well of filter plate, then washed once by adding 100 μL/well wash buffer and aspirating. Antigen and controls are added to filter plate 50 μL/well then covered and allowed to incubate in the dark for 1 hour on shaker. Following a wash step, a secondary unknown antibody is added at 50 μL/well using the same dilution (or concentration if known) as is used for the primary antibody. The plates are then incubated in the dark for 2 hours at RT on shaker followed by a wash step. Next, 50 μL/well biotinylated m×hIgG diluted 1:500 is added and allowed to incubate in the dark for 1 hour on shaker at RT. Following a wash step, 50 μL/well Streptavidin-PE is added at 1:1000 and allowed to incubate in the dark for 15 minutes on shaker at RT. Following a wash step, each well is resuspended in 80 μL blocking buffer and read using Luminex. […] Competitive binding by antibodies from […] supports antibody specificity for similar or adjacent epitopes. Non competitive binding supports antibody specificity for unique epitopes.
Three bins were created to further test the binding of six anti-GPNMB antibodies. Bin 1 included GPNMB antibodies (1.2.1), (1.10.1), and (2.22.1). Bin 2 included GPNMB antibodies (2.3.1) and (1.15.1), and Bin 3 included GPNMB antibody (2.10.1). The results of the binning assays are provided below in Tables 8 and 9.

SK-Mel-2 cells [2] = experiment: ADCC assay with human PBMC (DELFIA EuTDA cytotoxicity); assay type: cell-based; settings: 30 to 100 fold PBMC; 2, 5, 10 μg/200 μl mAb
Procedure: Human PBMC were isolated from whole blood using a Ficoll-Plaque. Briefly, in a 50 mL tube, 15 mL of PBS was added to 20 mL of whole blood which was underlayed with 10 mL Ficoll-Plaque and the tube was centrifuged at 2000 RPM. Mononuclear cells were collected from the interface and washed 3 times with PBS. The ADCC assay was carried out in a 96 well plate using a fluorescence assay for cytolysis from Perkin-Elmer (DELFIAEuTDA Cytotoxic assay). The procedure is based on loading target cells with a fluorescence enhancing ligand (BATDA, bis (acetoxymethyl) terpyridine—dicarboxylate). The hydrophic ligand penetrates the membrane quickly. Within the cell the esterbonds are hydrolyzed to form a hydrophilic ligand (TDA, terpyridine—dicarboxylic acid) which can no longer pass through the membrane. After cytolysis the ligand is released and introduced to the Europium solution. The europium and the ligand form a highly fluorescent and stable chelate (EuTDA). Fluorescence intensity are recorded using excitation and emission wavelengths as λex=340 nm and λem=613 nm, respectively.

SK-Mel-2 cells [3] = experiment: Clonogenic assay, SK-Mel-2 cells after GPNMB siRNA; assay type: cell-based, human
Procedure: Cells were plated in 96-well plates and allowed to recover overnight. […] The cells were then transferred into 6-well plates and allowed to form colonies. Colonies were stained with Giemsa stain (Sigma) and counted. The surviving cell fractions were calculated based upon the ratio of the treated sample and the untreated control. The results were expressed as a percentage of control using GraphPad Prism Version 4 software.
The amount of GPNMB expression was reduced for at least 7 days after transfection.

## CR011: fully human monoclonal antibody that specifically binds to GPNMB; VH SEQ ID NO: 20, VL SEQ ID NO: 29
TK10
  cell death in GPNMB negative TK10 cells: less than 24%
[1]
  growth inhibition with saporin-conjugated secondary antibody (in words): could specifically inhibit the growth
GPNMB; Table 8
  bin: VIII
  binning signal against antibody 1.1: 91
  binning signal against antibody 1.11: 10
  binning signal against antibody 1.12: 15
  binning signal against antibody 1.13: 13
  binning signal against antibody 1.15: 0
  binning signal against antibody 1.2: 79
  binning signal against antibody 1.3: 71
  binning signal against antibody 1.7: 21
  binning signal against antibody 1.8: 8
  binning signal against antibody 1.9: 12
  binning signal against antibody xV5: 89
  binning signal against column antibody 1.5: 15
GPNMB; Table 9
  binning signal against antibody 1.1: 127
  binning signal against antibody 1.11: 19
  binning signal against antibody 1.12: 21
  binning signal against antibody 1.13: 5
  binning signal against antibody 1.15: 0
  binning signal against antibody 1.2: 90
  binning signal against antibody 1.3: 51
  binning signal against antibody 1.7: 17
  binning signal against antibody 1.8: 12
  binning signal against antibody 1.9: 19
  binning signal against antibody xV5: 125
  binning signal against column antibody 1.5: −9
GPNMB; Table 9, Cut-off = 90
  bin: VIII
GPNMB; three bins of six anti-GPNMB antibodies
  bin: Bin 2
SK-Mel-2 cells [2]
  cytolysis of SK-MEL-2 cells (ADCC): did not show any cytolysis

## CR011-vcMMAE: CR011 conjugated to monomethyl auristatin E through a protease cleavable valine-citrulline linker; approx. 4 drugs per antibody
SK-Mel-2 cells [3]
  sensitivity of SK-Mel-2 cells to growth-inhibitory activity following siRNA-mediated GPNMB knockdown: less sensitive
